Data on 21 sequences can be found in a protein production outcome set (Wang et al. 2014).
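Note: failed if final PepcDB status was selected cloned or expressed and not failed if soluble or beyond.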

A short description of this series: label from the status in PepcDB records.
“MPGQSRFPLPLIAAFFALYVIWGSTYLVIRIGVEYWPPLMLGGIRFIIAGSLMYAFLRWRGVPAPTWAQWKAAGIIGVLLLSCGNGAVTLAEHSGVTSGVAALAVATVPLFTLLCGYFWGARNTRLEWAGIVLGMIGIGMLNLGSNLQSSPMGAALLLFAAAAWAFGSVWSKHLPLPQGAMASAAEMLVGGVVLMIGSALSGEHLDTLPPMEGWLALAYLAGFGSIIAFNAYMYLLKHVRPAAATSYAYVNPAVAVLLGIVFVGETIGIEEAMAMLVIISAVVLIGLPQWRKPKAAAQEEAA”: the protein production entry is recorded as “failed”. In the case of “MPGSLRKMPVWLPIVILLVAMASIQGGASLAKSLFPLVGAPGVTALRLALGTLILIAFFKPWRLRFAKEQRLPLLFYGVSLGGMNYLFYLSIQTVPLGIAVALEFTGPLAVALFSSRRPVDFVWVVLAVLGLWFLLPLGQDVSHVDLTGCALALGAGACWAIYILSGQRAGAEHGPATVAIGSLIAALIFVPIGALQAGEALWHWSVIPLGLAVAILSTALPYSLEMIALTRLPTRTFGTLMSMEPALAAVSGMIFLGETLTPIQLLALGAIIAASMGSTLTVRKESKIKELDIN” it was “failed”; in that of “MPHLFYGTAQNGEVIFDEREAHHMRVVRLKEGDVIEATDGNGFSYTCILKSLKKKTAAAKIVKVEEKEKEPTEKLSVVVPIGRWERTRFLIEKCVELGVDEIFFHKFERSQHEISLDKAKIVVREAAKQCKRYLFPKVSFLEKLEFSGNVITLDLDASQNLLDANLEGSITVVVGPEGGFSEKERELLRSSTTIVSLGKKILRFETAAILTVGYIALKKQKI”, “not failed”; in that of “MPHLNILIVRIEEFLRSIVKITSAPTYKTRVKSFNSYYLKLLKFPPKKDTSDLPVLTDILGVRIICPFLQDINEVERILLKNFKIIEVERKGSERTFREFGYESVHFLLDIPEEFKVGLVLPKNLIFEIQLRTILQDAWAEVEHELVYKSEFSPFDQPLKRKLASINASLSLADIIFQEIRDYQNKLNAELEKRRFEFYSMADEYTAQVLPETNIVQHDNVEHGEELKLAETIDDLILSAIEAHNQNLFDKAEKIYTKIIEQNPNDIVLSVVYKHRGMAYFAQANYEGAYADFLQSCKYNSANFRSFYYVGIALTLLNRDDEAIEYFTKSLEINKFQAHVYFRRALSYFKLALYPEAARDLDSASDLGLAEEDAKKLRIAIAKKIDMV”, “failed”. Consider “MPHLTKAVHDYRLAAMHRLMDRLRVDALVFGSPDFFQYATNFQLDVWPWERPVFVVVPRNGETFAVMNELSTNHMRFATEKGTVWLSDVTYYAEHPRVANRLALPSQLPEVVAALLAAKGLGMSRIAVDVQHPILTGAQRYLPEMTLRPAMAEMRSLRWVKHAEELQIMRDLAALTDWVQDRYRENIRPGRLVQELDHAMAALMVEEAARRFAGEDFEIMKCWTLTGAASASPHGDGAACGSRIAKGDTIVNLVLPRLNGLYVENERTWFCGQPSDEQARFYSVAARATDAAVAAAVVGRRVCDMDAAAQAVIESAGCGDYVFHRTGHAVGLMLHEYPEDMAFNTRPLLAGEVYSSEPGLYVYGLGGFRLDDTVVVGEVPEVIVKTPKTLSYATVSL”, for which the protein production result is reported as “failed”. Consider “MPHPNRTFKIVIAPDSFKSTATTSQAAAFIAEGIQAAVQSNECEGINVEITTVPMADGGEGTSSCFEGIDITLPTTDANGRLTEATYRFDPQSETAYIDVAAASGLPAVEDELRPLTADTYGTGVLIADAQTRGARR”, for which the protein production entry was “not failed”. “MPHQKIYLVGAGIEGWEGFGAKALEVIGKAEVLVGHKRHLDIFSDFTGKKQELGDLSILLEQLRSTDKRTVVLGSGDPNFFGIARFLLRNLPKERIEIFPNVTSVQYAFAQIKEPWDDAIFVSVHGRGLKGAVDRIVAAEKVAVLTDKTNSPAAIARELIARGAEGYEAWLCENLGLPGEKFTRTDVKGLLELPAAELNILILIKAWEPQLAQYPVIGIDDDEFATAKKLITKQEVRAVTLSKLRLQDDLVMWDIGAGSASVSIEASNLMPNGRIFALERNPQYLGFIRDNLKKFVARNVTLVEAFAPEGLDDLPDPDRVFIGGSGGMLEEIIDAVDRRLKSEGVIVLNAVTLDTLTKAVEFLEDHGYMVEVACVNVAKTKGLTEYKMFESHNPVYIITAWKSDE”: the protein production entry is given as “failed”. As to “MPIEIITDSGADLPQSYIREHRIAFLPLVVHWNGQDYKDGITIEPKQVYDAMRQGHTVKTAQPSPLAMKELFLPYAKENRPCLYIAFSSKLSGTYQTAMAVRSELLDEYPEFRLTIIDSKCASLGQGLAVMKAVELAKQNTPYNLLCETIESYCRHMEHIFTVDNLDYLARGGRISKTAAAFGGLLNIKPLLHVEDGALIPLEKWRGRKKVLKRMVELMGERGDDLQKQTIGISHADDEETALELKQMIEETHGCTRFFLSDIGSAIGAHAGPGTIALFFLNKYIEI”, the protein production result was “not failed”. As to “MPIQRREFIAAIGTGALATTAGCAQSGEGSGQTEAETEAESGGGGQPGVAGETLTLTTTTSTYDTGLLDEIHPDFEDMYGVSVDAVAQGTGAALESARNGDSDIVMVHARGLEDDFMRNGYGINRRDLMFNDFVIVGPEDDPAGIQGMGSATEALTTIAESESQFVSRGDNSGTHTKELNLWEAAGTEPGGNWYQETGTGMGEALNIANQQGAYTLSDRGTYISQRSEIDLVILVQGPIEDGPEILANPYGIMAVNPGVHDNANYDLAMAYIGWITSPGTQDAISNYQVNGEQLFFPEAVSEDPNFQQYVPEGWSSDAGE”, the protein production result is listed as “failed”. In the case of “MPIRVYTKVELALLYAPHLSENAALNNLSRWMRHNKLLMAALEEVGYYKYRHSFTPKEVRLIFRYMGEPGALEHHHHHH”, the protein production entry was “not failed”. Consider “MPITVHAYTSLDNEEIRTQLERLYDTSPEFGDGQDAIEQLEQNLAQYTTVYTAEFNTKIIGAIWCTGQGESKILEYIVVHPANRGRGIAERLVSEVCRMEEAKGVTMFEPGCGAIHRCLAHIGKLSV”, for which the protein production entry was “failed”.

“MPKAAWEPEYHRVFVDLCVEQKMLGNQPGTQHILKPFLQRTGARFTRNQLKNHWDTMIKQWKIWCRLVQCSDMQWDPQTNTFGANDQDWANYLHVNPEAGQYRLNPPSFLEKLELIFEDSNLDDEGTSGSKRKRIAKHRDEDNDNTGDEEDTQSASNFSSPQSKGYWSPSSHELFVDLLFQEALKGNRPDSHYPKETWKMILETINQNTGKSFTRPQLKNHWDCTRKSWKIWCQVIGAPVMKWDATSRTFGATDEDWKNYLKENHRAAPFRRKQLPHADKLATIFKGLIEPGKAYFRSYRRRVLDHHSESPQLHDPTPLSTLYTNEPVSGSEGGADEDDNDDDDEQPTPQHRRFNSVGFAESRLQDVEIVTPGCHRLKTELMKESPVSASVRQYEYTIGECIECLDSMEEVEQGSDLYLFALDLFVKKEYREIFLLLKNSSLRMSWLLRLRSGGLTIAA”: the protein production result is given as “failed”. In the case of “MPKANLEIIRSTYEGSASSNAKHLAEALSEKVEWTEAEGFPYGGTYIGVEAIMENVFSRLGSEWNDYKASVNMYHEVSGKDVIIAEGMYSGVYKDTGKSFEAEFVHVWQLENGKIVKFKQYVDSHLVREAMKS”, the protein production entry is given as “not failed”. As to “MPKASLIIRERGLPKREVLLSPDRQWTIGRQLDCSIRLTDAYVSRLHAVINAFLFRGQPLYFIRDAHSRNGTFLNGFPLQHSTLLHHEDVIGVGTTLLVFYYPDMFREISLDECPLEHHHHHH”, the protein production entry is on record as “not failed”. In the case of “MPKFDVSKSDLERLIGRSFSIEEWEDLVLYAKCELDDVWEENGKVYFKLDSKDTNRPDLWSAEGVARQIKWALGIEKGLPKYEVKKSNVTVYVDEKLKDIRPYGVYAIVEGLRLDEDSLSQMIQLQEKIALTFGRRRREVAIGIFDFDKIKPPIYYKAAEKTEKFAPLGYKEEMTLEEILEKHEKGREYGHLIKDKQFYPLLIDSEGNVLSMPPIINSEFTGRVTTDTKNVFIDVTGWKLEKVMLALNVMVTALAERGGKIRSVRVVYKDFEIETPDLTPKEFEVELDYIRKLSGLELNDGEIKELLEKMMYEVEISRGRAKLKYPAFRDDIMHARDILEDVLIAYGYNNIEPEEPKLAVQGRGDPFKDFEDAIRDLMVGFGLQEVMTFNLTNKEVQFKKMNIPEEEIVEIANPISQRWSALRKWILPSLMEFLSNNTHEEYPQRIFEVGLATLIDESRETKTVSEPKLAVALAGTGYTFTNAKEILDALMRHLGFEYEIEEVEHGSFIPGRAGKIIVNGRDIGIIGEVHPQVLENWNIEVPVVAFEIFLRPLYRH” it was “not failed”; in that of “MPKFYCDYCDTYLTHDSPSVRKTHCSGRKHKENVKDYYQKWMEEQAQSLIDKTTAAFQQGK”, “not failed”; in that of “MPKRKNTSIKDYKLKSGKKRYMFQIYLGTNSNGKPIITRRRGFKSYAEAEAVFNKMSQIKPDNFVKQKQIKVAELRELWFENYKTQVKESTANKNKQVFDNHVIPAFGNQYIDKITVAELQKWADRKAKQIVKYRDAINEFNALFEYGIRLNYVSENPLKRIIIPKKTSRPRRDTEHNVYTQDELNQFLEVAKDYGLVPYTYFKLLSATGLRKSEALALTWSDINLTAGTLSVNKTLAYGLNGKTIIQPPKSPKSKRILPISDGLKEVLIDYKRKQKIISKELFHTNKGTYLRISKPDQWLKSIYAKDHEEKAEYAKKYNLKEPQPDLRHITVHGFRHTFATLLIAETNVKPKTVQMLLGHENIQMTLDIYTHINKKNTEDAVNALKQLNI”, “failed”.

As to “MPKRSKEDTEITIQKIMDAVVDQLLRLGYDKMSYTTLSQQTGVSRTGISHHFPKKTDFTAALDGRIFKMFIEHLEFEKGLDAFSQSWIKALEDSEFLAILRLLFHHIVTSESAHEFAANGIDRLYKMVESQFGSGGDKELEWLIGRSLIQMSK”, the protein production result is reported as “not failed”. In the case of “MPKSMGMAVAVPVTLAVIAAGGAGVGAYMYNERNLALEELARQSELSGSIATLETEVAGLTSQVKAAEGQLGDLNGQLEAAKAELAEVQGQHDRLSSELEPMRAEIASFDSRKAEAEESTAKAIADFQAADARLKELTDREDNLRATVSKLAAEVQDLDRRMEGLRAESGALVAAAQSAARQRTDLQGMVETLAGLLATRSEELVQLERRIGEQDLKVPAAGPAPLAAAAGAASQAPDGAGAAEPAAKEAETAAPETDAAGQTASQAEGSEAGSQPAAEPEAAEADGGNGAAEEPEAGAQDEGADAAAEPAPTGASEDAPDDAAAEGSTAEAEAAPEASGSTAGASDDAASQGSTAASEEPEAAPPSEAPAKAEAPDLGAGTYGIGPLFATFSPDGSFTMRNVELDTSASGKWEVTDGLLTLSDPEGGSGSSSFPMLCQLVKEAEALKLAKAQTGSCPLAGMEIARR” it was “failed”; in that of “MPKWTPYKRHPGVYEYQTKKGKRFGVRRTYDDAMGERKEFSKSGFIHWQDADIEIKRFEAKLVSGEVSGSLANRMTIDQYYQQMAKRKMKMGIWRESTARANGNFYSKYLKPAFGKTPLQDVSRAKYQRFLDELSQSGLALTTVHTIDAVMKSIMNAAEFEDVIDKNRLRGMQINGKAPRNKDLEPHSFELWLNAAKTNLDKYEMALIITATLGLRRGEVMGLRNESIKISHDQINDADVAQISIDMQRNTNELNGGPLKTKSSYRTIWAFGKTVDHLKYAMITADNLRQRNNIQAEKHWLWLNNDGNPLHPTHLNRLMRRVSNRSGVEVYPHLLRHYFATQAIAANKPQIDVMHYLGHKNLQMTADYTRSTKAASLNVFNSIDKFL”, “failed”. For the sequence “MPLAIIPWFELPSASLGPFTLQSFGVLSALGILAAVQLSARGAKQLGKDPQVILDFAVVGVLAGVVVGHLAHLFFYHPEELQDPLRIFKFWEGLSSMGGLAGGMIAAAVYFRRKRVRFTAYADAFALGVAPGWGIARVGCFTVHDHPGRLTDFFLAVRFPDGPRHDLGLYEAILLLSLGAVLWALHRRDVLRGRLLPLLALVYGIGRFLLDFLRATDVSYADARHLGLTFAQYFAVALVAYAVWGFARRPSDEERVRVSTGVGRR”, the protein production entry was “failed”.
